PMC5752578 (Structure (London, England : 1993), 2017)

T1: Grp1 63-399 E161A part of the Grp1 63-399 E161A Arf6 Q67L fusion (mouse, UniProt O08967 63-399, E161A)
T1 sequence (looked up): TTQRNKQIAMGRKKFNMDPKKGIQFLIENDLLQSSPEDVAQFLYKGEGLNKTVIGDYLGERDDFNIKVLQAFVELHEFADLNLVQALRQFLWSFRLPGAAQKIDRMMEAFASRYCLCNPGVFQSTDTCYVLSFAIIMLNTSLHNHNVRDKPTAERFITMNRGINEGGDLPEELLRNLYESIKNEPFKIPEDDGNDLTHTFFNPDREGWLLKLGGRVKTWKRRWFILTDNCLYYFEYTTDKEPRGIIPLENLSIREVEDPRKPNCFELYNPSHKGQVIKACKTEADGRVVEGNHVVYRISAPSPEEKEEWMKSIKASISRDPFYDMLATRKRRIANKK


What was measured:
SEC-SAXS = target: the molecule itself; experiment: SEC-SAXS
[1] = target: T1, Grp1 63-399 E161A part of the Grp1 …; experiment: SEC-SAXS

binding result [1]	Binder	stoichiometry N (SEC-SAXS)
	Grp1_(63-390) (mouse Grp1, diglycine splice variant, residues 63-390; fully active, lacking the polybasic region) (domain or fragment, UniProt O08967 63-390, looked up) TTQRNKQIAMGRKKFNMDPKKGIQFLIENDLLQSSPEDVAQFLYKGEGLNKTVIGDYLGERDDFNIKVLQAFVELHEFADLNLVQALRQFLWSFRLPGEAQKIDRMMEAFASRYCLCNPGVFQSTDTCYVLSFAIIMLNTSLHNHNVRDKPTAERFITMNRGINEGGDLPEELLRNLYESIKNEPFKIPEDDGNDLTHTFFNPDREGWLLKLGGRVKTWKRRWFILTDNCLYYFEYTTDKEPRGIIPLENLSIREVEDPRKPNCFELYNPSHKGQVIKACKTEADGRVVEGNHVVYRISAPSPEEKEEWMKSIKASISRDPFYDMLAT	2
binds	Arf6 Q67L part of the Grp1-Arf6 fusion constructs, loaded with GppNHp (natural protein, human) GKVLSKIFGNKEMRILMLGLDAAGKTTILYKLKLGQSVTTIPTVGFNVETVTYKNVKFNVWDVGGLDKIRPLWRHYYTGTQGLIFVVDCADRDRIDEARQELHRIINDREMRDAIILIFANKQDLPDAMKPHEIQEKLGLTRIRDRNWYVQPSCATSGDGLYEGLTWLTSNYK	
